According to the supplement of paper PMC10126150:
± gives the standard deviation of the averaged measurements.

Test system: ATP
Assay: switch fluorescence ratio, 500 uM ATP over buffer (Cy3 cluster intensity, sum of 5 cycles each) (fold (ratio)); higher = stronger signal-on switching upon ATP binding; sequences stand for … in TCGTCGGCAGCGTCAGATGTGTATAAGAGACAGTTTTTTTTTTTTTTTTTTTTTTTTT…TC
Details: aptamer strand: ATP DNA aptamer (quencher-CACCTGGGGGAGTATTGCGGAGGAAGG + anchor), 100 nM annealed; ATP concentration: 500 uM
Method in brief: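 Between each of five buffer/ATP cycles, the flow-cell was stripped with NaOH and re-annealed. Each cycle imaged Cy3-labelled switching-strand clusters, annealed to 100 nM quencher-labelled ATP aptamer on a modified Illumina MiSeq flow-cell, first in selection buffer and then after 15 min with 500 uM ATP at 22 °C. The fluorescence ratio is summed target-cycle over summed buffer-cycle Cy3 intensity per cluster, averaged per switch-domain sequence, with clusters outside 100-1000 RFU excluded.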
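Also: ATP exposure 15 min at 22 °C before imaging.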

| Sequence | switch fluorescence ratio |
| --- | --- |
| AGTTTACTGG | 0.9626 ± 0.0022 |
| AGTTTACTGT | 1.02 ± 0.072 |
| AGTTTATGTG | 0.9746 ± 0.0073 |
| AGTTTCCGGA | 0.992 ± 0.016 |
| AGTTTCTTAC | 1.01 ± 0.024 |
| AGTTTGAAGG | 0.9894 ± 0.0073 |
| AGTTTGAGTA | 1.01 ± 0.027 |
| AGTTTGATGT | 1 ± 0.023 |
| AGTTTGCGGG | 1.006 ± 0.0094 |
| AGTTTGGATA | 0.97 ± 0.028 |
| AGTTTGGGGA | 0.979 ± 0.015 |
| AGTTTGGGT | 0.985 ± 0.032 |
| AGTTTGTACG | 1.04 ± 0.024 |
| AGTTTGTTCT | 0.999 ± 0.01 |
| AGTTTTCATG | 1.02 ± 0.017 |
| AGTTTTCGTG | 0.99 ± 0.03 |
| AGTTTTGCGC | 0.972 ± 0.034 |
| AGTTTTGGCG | 0.973 ± 0.0047 |
| AGTTTTGTTA | 1.02 ± 0.019 |
| AGTTTTGTTC | 1.01 ± 0.019 |
| AGTTTTGTTG | 0.989 ± 0.036 |
| AGTTTTTACC | 1.01 ± 0.046 |
| AGTTTTTCAA | 0.9984 ± 0.0073 |
| ATAAAAACCG | 1.01 ± 0.053 |
| ATAAAAAGCA | 0.995 ± 0.04 |

| Sequence | switch fluorescence ratio |
| --- | --- |
| ATAAAAAGGT | 0.987 ± 0.013 |
| ATAAAAAGTT | 0.984 ± 0.034 |
| ATAAAAGCTT | 1.03 ± 0.014 |
| ATAAAAGGGG | 1.001 ± 0.0097 |
| ATAAAAGTCC | 0.979 ± 0.017 |
| ATAAAATTA | 1.011 ± 0.01 |
| ATAAAGAAGT | 1.007 ± 0.0052 |
| ATAAAGATGG | 0.95924 ± 0.00085 |
| ATAAAGCATA | 1.03 ± 0.026 |
| ATAAAGGGAT | 1 ± 0.034 |
| ATAAAGGTCG | 1.06 ± 0.1 |
| ATAACAAATT | 1.03 ± 0.031 |
| ATAACAGGGC | 0.952 ± 0.037 |
| ATAACGATCT | 1.04 ± 0.022 |
| ATAACGGCCT | 1.007 ± 0.0099 |
| ATAACTTTTT | 0.992 ± 0.054 |
| ATAAGAAGTG | 1.05 ± 0.072 |
| ATAAGACTGG | 0.9819 ± 0.0053 |
| ATAAGAGACT | 1.01 ± 0.03 |
| ATAAGATATG | 0.999 ± 0.012 |
| ATAAGATTAC | 1.012 ± 0.0091 |
| ATAAGCCTGG | 1.01 ± 0.041 |
| ATAAGCGAAG | 0.993 ± 0.028 |
| ATAAGCGCAG | 1.008 ± 7e-05 |
| ATAAGGAGTG | 0.996 ± 0.021 |

| Sequence | switch fluorescence ratio |
| --- | --- |
| ATAAGGATCT | 1.03 ± 0.016 |
| ATAAGGCAGG | 0.999 ± 0.024 |
| ATAAGGGATG | 0.998 ± 0.017 |
| ATAAGGGGTT | 0.993 ± 0.039 |
| ATAAGTGATA | 1.02 ± 0.025 |
| ATAAGTGCGA | 0.9826 ± 0.002 |
| ATAAGTGTCT | 1.02 ± 0.011 |
| ATAAGTTAGT | 0.989 ± 0.016 |
| ATAATAATGT | 1.002 ± 0.0045 |
| ATAATAATTT | 1.02 ± 0.011 |
| ATAATACGCC | 1.17 ± 0.013 |
| ATAATAGGGA | 0.982 ± 0.014 |
| ATAATATTTG | 0.985 ± 0.015 |
| ATAATGATGT | 0.97 ± 0.026 |
| ATAATGATTG | 0.994 ± 0.016 |
| ATAATTCGGG | 1 ± 0.049 |
| ATAATTCGTG | 1.01 ± 0.027 |
| ATAATTGGGA | 0.99 ± 0.041 |
| ATAATTGTTT | 0.984 ± 0.042 |
| ATAATTTAGC | 0.961 ± 0.02 |
| ATACAAAA | 1.02 ± 0.048 |
| ATACAAGACT | 1.06 ± 0.03 |
| ATACAATAGA | 1.004 ± 0.0087 |
| ATACACAATT | 1.08 ± 0.054 |
| ATACAGGGTG | 1.24 ± 0.019 |

| Sequence | switch fluorescence ratio |
| --- | --- |
| ATACAGGTCT | 1.03 ± 0.011 |
| ATACATATTT | 1.035 ± 0.0075 |
| ATACATGTAG | 0.9845 ± 0.0047 |
| ATACATTTGG | 0.999 ± 0.014 |
| ATACCAGGGG | 1.08 ± 0.19 |
| ATACCATCGG | 0.981 ± 0.024 |
| ATACCATGGT | 0.992 ± 0.053 |
| ATACCGAGTA | 1.01 ± 0.049 |
| ATACCGGATT | 1.01 ± 0.046 |
| ATACCTTATG | 1 ± 0.029 |
| ATACCTTCGT | 1.692 ± 0.012 |
| ATACGACTTA | 1.04 ± 0.014 |
| ATACGATGAT | 1.04 ± 0.017 |
| ATACGATGTA | 0.986 ± 0.014 |
| ATACGGGGGG | 0.989 ± 0.017 |
| ATACGGGTGC | 1.26 ± 0.043 |
| ATACGTGGTG | 1.09 ± 0.086 |
| ATACGTTATT | 1.21 ± 0.057 |
| ATACTATCTA | 1.03 ± 0.017 |
| ATACTCCGGA | 1.16 ± 0.055 |
| ATACTCGTGG | 1.01 ± 0.042 |
| ATACTCGTTA | 1.01 ± 0.024 |
| ATACTGTGTT | 1.014 ± 0.0084 |
| ATACTTCATT | 1.03 ± 0.032 |
| ATAGAAGGGA | 0.991 ± 0.044 |

| Sequence | switch fluorescence ratio |
| --- | --- |
| ATAGAATGAT | 0.995 ± 0.017 |
| ATAGAATGCG | 0.9955 ± 0.0012 |
| ATAGAATTAA | 0.989 ± 0.013 |
| ATAGAATTGT | 0.9803 ± 0.0091 |
| ATAGACGTCC | 0.993 ± 0.015 |
| ATAGAGAGGT | 1.01 ± 0.012 |
| ATAGAGCTTT | 1.07 ± 0.085 |
| ATAGAGGATA | 0.9861 ± 0.0073 |
| ATAGATAGCC | 0.96 ± 0.015 |
| ATAGATATAG | 1.027 ± 0.0096 |
| ATAGATGTTG | 0.9812 ± 0.0069 |
| ATAGCATACG | 1.28 ± 0.047 |
| ATAGCATGTT | 1 ± 0.038 |
| ATAGCGGAAT | 1.007 ± 0.01 |
| ATAGCGGGGG | 0.998 ± 0.031 |
| ATAGCGTATT | 0.998 ± 0.049 |
| ATAGCTAACT | 1.02 ± 0.022 |
| ATAGCTATAA | 1.003 ± 0.0029 |
| ATAGGAAAGG | 0.999 ± 0.035 |
| ATAGGAAATC | 2.74 ± 0.75 |
| ATAGGACGCA | 1.265 ± 0.0027 |
| ATAGGAGGGT | 0.989 ± 0.014 |
| ATAGGCATGC | 1.06 ± 0.067 |
| ATAGGGAGTA | 0.979 ± 0.061 |
| ATAGGGATTC | 1.02 ± 0.038 |

| Sequence | switch fluorescence ratio |
| --- | --- |
| ATAGGGCTTG | 0.9746 ± 0.005 |
| ATAGGGGA | 0.989 ± 0.018 |
| ATAGGGGAAA | 0.987 ± 0.024 |
| ATAGGGGCAT | 1 ± 0.025 |
| ATAGGGGCGC | 1 ± 0.047 |
| ATAGGGGGAT | 0.993 ± 0.015 |
| ATAGGGGGGG | 1.03 ± 0.025 |
| ATAGGGTGGG | 1 ± 0.022 |
| ATAGGTATTC | 0.976 ± 0.026 |
| ATAGGTCTCG | 1 ± 0.031 |
| ATAGGTGGTT | 0.994 ± 0.019 |
| ATAGGTTCGT | 0.99 ± 0.012 |
| ATAGGTTGTT | 0.973 ± 0.016 |
| ATAGGTTTTG | 0.9864 ± 0.004 |
| ATAGTAAAAC | 1.05 ± 0.02 |
| ATAGTAACAC | 1.06 ± 0.038 |
| ATAGTAGGTC | 1.048 ± 0.0015 |
| ATAGTATCTT | 1 ± 0.021 |
| ATAGTATGTA | 1.01 ± 0.031 |
| ATAGTCCTGG | 0.963 ± 0.019 |
| ATAGTGGACA | 0.9867 ± 0.0019 |
| ATAGTGGGGT | 0.987 ± 0.021 |
| ATAGTGGGTG | 0.997 ± 0.037 |
| ATAGTGGTGC | 0.958 ± 0.067 |
| ATAGTGTTGA | 1.03 ± 0.011 |

| Sequence | switch fluorescence ratio |
| --- | --- |
| ATAGTTAAAT | 0.943 ± 0.089 |
| ATAGTTCTGG | 0.992 ± 0.018 |
| ATAGTTGGA | 0.953 ± 0.019 |
| ATAGTTTAGG | 1.016 ± 0.0076 |
| ATATAACATT | 1.05 ± 0.018 |
| ATATAAGTAG | 1.03 ± 0.014 |
| ATATACTAAT | 1.02 ± 0.038 |
| ATATACTACA | 1.06 ± 0.022 |
| ATATAGAATA | 1.03 ± 0.024 |
| ATATAGGGGC | 1.02 ± 0.046 |
| ATATAGGTTG | 0.974 ± 0.051 |
| ATATATGCCG | 0.985 ± 0.044 |
| ATATATGTCG | 1.07 ± 0.049 |
| ATATATGTGG | 0.981 ± 0.057 |
| ATATATTGAG | 0.995 ± 0.019 |
| ATATATTGCG | 1.016 ± 0.0031 |
| ATATATTGGT | 0.9922 ± 0.0046 |
| ATATATTTAT | 1.022 ± 0.0085 |
| ATATCAAGGA | 1 ± 0.029 |
| ATATCAGGGC | 0.961 ± 0.034 |
| ATATCCAATA | 0.99 ± 0.036 |
| ATATCCGACA | 1.054 ± 0.0056 |
| ATATCCTAGT | 0.987 ± 0.029 |
| ATATCCTTGG | 0.984 ± 0.026 |
| ATATCGGGGT | 1.001 ± 0.0045 |

| Sequence | switch fluorescence ratio |
| --- | --- |
| ATATGAAGGA | 0.993 ± 0.013 |
| ATATGAAGGT | 0.9893 ± 0.0047 |
| ATATGGCTTT | 1.02 ± 0.013 |
| ATATGGGTAC | 1.034 ± 0.0052 |
| ATATGGGTTC | 1 ± 0.026 |
| ATATGGTCGT | 0.998 ± 0.017 |
| ATATGGTTGG | 0.958 ± 0.016 |
| ATATGTAAAC | 1 ± 0.047 |
| ATATGTATGC | 0.97875 ± 3.4e-05 |
| ATATGTGGTA | 1.01 ± 0.031 |
| ATATGTTAGT | 0.988 ± 0.011 |
| ATATTAAAAC | 0.988 ± 0.034 |
| ATATTACTGC | 1.07 ± 0.02 |
| ATATTAGGGA | 1 ± 0.0079 |
| ATATTAGTTA | 0.997 ± 0.05 |
| ATATTCCGTT | 0.968 ± 0.018 |
| ATATTGAAGG | 0.981 ± 0.012 |
| ATATTGACAC | 1.08 ± 0.012 |
| ATATTGGCTA | 1 ± 0.0039 |
| ATATTTAAGG | 0.995 ± 0.029 |
| ATATTTACCG | 1.04 ± 0.011 |
| ATATTTAGAG | 0.992 ± 0.027 |
| ATATTTAGTT | 1.01 ± 0.051 |
| ATATTTGCCA | 1.02 ± 0.021 |
| ATATTTTTT | 0.9892 ± 0.0038 |
